According to patent publication US20250250334A1 (MEDICOVESTOR, published 2025):

Assays:
[1] = target: T1, fusion protein containing the extracellular domain of human FRalpha and a polyhistidine tag (human, UniProt P15328 25-233); experiment: ELISA, coated human FRalpha ECD-His
T1 construct: extracellular domain; Coated on ELISA plates; also called human FRalpha extracellular domain; not shown: polyhistidine tag
Procedure: (§1) The affinity of each IgG1 for FRalpha was confirmed by ELISA. Briefly, a fusion protein containing the extracellular domain of human FRalpha and a polyhistidine tag was used to coat ELISA plates, which were washed three times with phosphate-buffered saline (PBS) containing 0.1 percent polysorbate 20 (PBST), then blocked with PBS containing 5 percent powdered milk (PBSM), and then washed three more times with PBST. Wells were then incubated with antibodies at varying concentrations for 60 minutes at room temperature in 1 percent PBSM. Wells were then washed three times with PBST, after which the secondary, horseradish-peroxidase-conjugated antibody anti-human-IgG-Fc-HRP (ab97225, Abcam, United Kingdom) was added at a 1:8000 dilution in 1 percent PBSM for 50 minutes at room temperature. The wells were then washed six times with PBST, after which 3,3′, 5,5″-tetramethylbenzidine (TMB) was added. The reaction was stopped with 2 molar sulfuric acid, and the TMB diamine product was quantified at 450 nanometers in a plate reader. Results are depicted in FIG. 2.

[2] = target: T2, fusion protein containing the extracellular domain of cynomolgus FRalpha and a polyhistidine tag (cynomolgus, UniProt A0A2K5U044 25-233); experiment: ELISA, coated cynomolgus FRalpha ECD-His
T2 construct: extracellular domain; Coated on ELISA plates; also called cynomolgus FRalpha extracellular domain; not shown: polyhistidine tag
Procedure: as §1
The ELISA of the preceding paragraph was repeated with a fusion protein containing the extracellular domain of cynomolgus FRalpha and a polyhistidine tag. Results are depicted in FIG. 3.

[3] = target: T3, human FRalpha expressed on cells (transfected HEK293 cells; SKOV3 human ovarian cancer cells) (human, UniProt P15328 25-234); experiment: flow cytometry, HEK293 cells transfected to express FRalpha
T3 construct: whole, on cells; also called human folate receptor alpha
Procedure: (§2) The affinity of each antibody was then assessed by flow cytometry. Briefly, HEK293 cells transfected to express FRalpha were washed with fluorescence-activated cell sorting (FACS) buffer, to which the IgGs were added at varying concentrations and incubated at 4 degrees Celsius for 60 minutes. The cells were then centrifuged and washed twice in FACS buffer. A phycoerythrin-labelled anti-human IgG, Fcgamma antibody (109-115-098; Jackson ImmunoResearch, Pennsylvania, United States) was then added to the cells at a 1:200 dilution and incubated at 4 degrees Celsius for 30 minutes. The cells were then washed, resuspended in FACS buffer, and counted by flow cytometry. Results are depicted in FIG. 4.

[4] = target: T3, human FRalpha expressed on cells …; experiment: flow cytometry, SKOV3 human ovarian cancer cells that express FRalpha
Procedure: as §2
The flow cytometry experiment of the preceding paragraph was repeated with a human ovarian cancer cell line that expresses FRalpha, SKOV3. Results are depicted in FIGS. 5A and 5B. […] The antibody according to SEQ ID NO: 3-12 was then designated the lead antibody for further development.

T3 sequence (P15328 25-234): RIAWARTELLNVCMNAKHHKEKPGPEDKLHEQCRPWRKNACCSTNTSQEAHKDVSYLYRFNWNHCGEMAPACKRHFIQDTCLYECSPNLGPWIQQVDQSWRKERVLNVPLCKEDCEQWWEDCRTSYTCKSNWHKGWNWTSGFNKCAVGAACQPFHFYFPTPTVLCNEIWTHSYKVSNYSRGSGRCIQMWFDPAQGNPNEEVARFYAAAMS
T2 sequence (A0A2K5U044 entry or part of it): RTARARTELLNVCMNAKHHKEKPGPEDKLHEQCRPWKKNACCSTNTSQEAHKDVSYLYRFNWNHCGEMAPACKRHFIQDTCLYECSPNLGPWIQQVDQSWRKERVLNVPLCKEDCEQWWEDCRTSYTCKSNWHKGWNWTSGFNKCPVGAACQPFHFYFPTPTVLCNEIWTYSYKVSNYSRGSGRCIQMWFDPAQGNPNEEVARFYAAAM
T1 sequence (P15328 25-233 limits assumed): as the sequence (A0A2K5U044 entry or part of it) above, with T2I, R4W, K37R, P146A, Y171H counted along it

B1: lead fully-human anti-FRalpha IgG1 antibody (antibody according to SEQ ID NO: 3-12) (antibody, V domains shown)
VH: EVQLLESGGGLVKPGGSLRLSCAASGFTFSSYTMNWVRQAPGKGLEWVSSISSGGGYIYYADSVKDRFTISRDNAKNSLYLQMNSLRAEDTAVYYCAKGDTIMIISAWGQGTTVTVSS
VL: DIQLTQSPSTLSASVGDRVTITCRASQSISSWLAWHQQKPGKAPKLLIYAASSLQNGVPSRFSGSGFGTDFTLTISSLQPEDFATYYCQQASSFPLTFGGGTKVEIKR
notes: Fully human IgG1/kappa; also called lead antibody
[1]
  EC50: ~0.05 nM
[2]
  EC50: ~0.06 nM
[3]
  EC50: ~5 nM
[4]
  EC50: < 1 nM

B2: Mirvetuximab (antibody, V domains shown)
VH: QVQLVQSGAEVVKPGASVKISCKASGYTFTGYFMNWVKQSPGQSLEWIGRIHPYDGDTFYNQKFQGKATLTVDKSSNTAHMELLSLTSEDFAVYYCTRYDGSRAMDYWGQGTTVTVSS
VL: DIVLTQSPLSLAVSLGQPAIISCKASQSVSFAGTSLMHWYHQKPGQQPRLLIYRASNLEAGVPDRFSGSGSKTDFTLTISPVEAEDAATYYCQQSREYPYTFGGGTKLEIK
[1]
  EC50: ~0.12 nM
[2]
  EC50: ~0.16 nM
[3]
  EC50: ~4 nM
